The target of assay [1] is Purified recombinant human PCSK9 (His-tagged, BPS Biosciences) (human) (UniProt Q8NBP7). Briefly: SPR (Biacore T200), PCSK9 amine-coupled on chip, peptide at 50 µM. For orientation: Surface plasmon resonance follows binding to a sensor surface in real time, without labels.
Assay [2] has the same target. Briefly: SPR (Biacore T200), PCSK9 amine-coupled on chip, peptide at 100 µM.

Non-standard residues stand in square brackets, D forms with d. No end group written: not given here. Hyp = O=C(O)[C@@H]1C[C@@H](O)CN1; NMeI = CC[C@H](C)[C@H](NC)C(=O)O; hArg = N=C(N)NCCCC[C@H](N)C(=O)O; Cit = NC(=O)NCCC[C@H](N)C(=O)O; Nle = CCCC[C@H](N)C(=O)O; APPA = not defined here; Aib = CC(C)(N)C(=O)O

Chain of Purified recombinant human PCSK9 (His-tagged, BPS Biosciences) (human) (Q8NBP7 31-692 limits assumed): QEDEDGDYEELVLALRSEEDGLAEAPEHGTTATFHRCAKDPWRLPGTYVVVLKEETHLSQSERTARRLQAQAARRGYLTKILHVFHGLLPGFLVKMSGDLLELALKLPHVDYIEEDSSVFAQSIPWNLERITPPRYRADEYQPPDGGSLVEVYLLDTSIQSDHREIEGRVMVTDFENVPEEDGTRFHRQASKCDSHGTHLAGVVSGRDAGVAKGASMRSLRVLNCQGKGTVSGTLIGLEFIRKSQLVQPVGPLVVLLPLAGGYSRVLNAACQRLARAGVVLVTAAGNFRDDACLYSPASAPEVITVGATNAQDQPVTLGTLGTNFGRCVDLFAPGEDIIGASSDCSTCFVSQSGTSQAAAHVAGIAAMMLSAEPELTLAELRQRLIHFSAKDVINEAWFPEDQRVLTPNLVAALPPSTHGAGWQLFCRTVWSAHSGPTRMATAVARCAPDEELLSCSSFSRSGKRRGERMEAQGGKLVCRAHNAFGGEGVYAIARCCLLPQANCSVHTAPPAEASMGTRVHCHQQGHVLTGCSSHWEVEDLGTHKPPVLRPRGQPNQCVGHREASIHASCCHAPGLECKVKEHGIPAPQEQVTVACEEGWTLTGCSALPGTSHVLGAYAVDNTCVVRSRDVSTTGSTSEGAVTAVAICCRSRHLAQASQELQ

As for SIPWNLER[Nle]TPC [Short chain peptide Seq. ID. No. 4 (SIPWNLER-Nle-TPC)], the Binding - Response Unit (RU) in assay [1] stood at 13.1 RU; in assay [2], 30 RU.

[Aib]IPWNLERITPC [Short chain peptide Seq. ID. No. 14 (Aib-…)]: the Binding - Response Unit (RU) in assay [1] was 7.1 RU; in assay [2], 15 RU.

In the case of SIPWN[Aib]ERITPC [Short chain peptide Seq. ID. No. 10 (SIPWN-Aib-ERITPC)], the Binding - Response Unit (RU) in assay [1] turned out to be 3 RU; in assay [2], 7.5 RU.

Consider SIPWNLE[Cit]ITPC [Short chain peptide Seq. ID. No. 12 (SIPWNLE-Cit-ITPC)], for which the Binding - Response Unit (RU) in assay [1] is 3.1 RU; in assay [2] it was 6.7 RU.

For SIPWNLE[hArg]ITPC [Short chain peptide Seq. ID. No. 6 (SIPWNLE-Har-ITPC)], the Binding - Response Unit (RU) was found to be 6.55 RU in assay [1] and 17.5 RU in assay [2].

SIPWNLERI[Aib]PC [Short chain peptide Seq. ID. No. 13 (…-Aib-PC)]: the Binding - Response Unit (RU) is 9.75 RU in assay [1] and 37.4 RU in assay [2].

With SIPWNLER[Aib]TPC [Short chain peptide Seq. ID. No. 5 (SIPWNLER-Aib-TPC)], the values for the Binding - Response Unit (RU) in assay [1] and in assay [2] were 2.3 RU and 7.1 RU, respectively.

For the molecule SI[Hyp]WNLERITPC [Short chain peptide Seq. ID. No. 8 (SI-Hyp-…)], the values for the Binding - Response Unit (RU) in assay [1] and in assay [2] were 5.7 RU and 13.2 RU, respectively.

As for SIPWN[Nle]ERITPC [Short chain peptide Seq. ID. No. 7 (SIPWN-Nle-ERITPC)], the Binding - Response Unit (RU) in assay [1] was determined as 6.65 RU; in assay [2], 16 RU.

For the molecule SIP[Bip(OMe)]NLERITPC [Short chain peptide Seq. ID. No. 19 (SIP-Bip(OMe)-NLERITPC)], the Binding - Response Unit (RU) in assay [1] came out at 35.1 RU; in assay [2], 85.9 RU.

On to SIP[APPA]NLERITPC (reading uncertain) [Short chain peptide Seq. ID. No. 18 (SIP-APPA-NLERITPC)], for which the Binding - Response Unit (RU) turned out to be 10.2 RU in assay [1] and 17.9 RU in assay [2].

Turning to S[NMeI]IPWNLERITPC [Short chain peptide Seq. ID. No. 15 (S-(N-Me-Ile)-…)], the Binding - Response Unit (RU) came out at 11.4 RU in assay [1] and 29.9 RU in assay [2].

The values above are taken from patent publication US20200399311A1.
